The supplement of paper PMC10567573

B1: SOAT2 (parent)
chain: SLGKQKVFIIRKSLLDELMEVQHF

Variants of: B1
Assay: protein stability index of a GFP-peptide fusion (GPS, HEK-293T) (PSI 1-6); higher = more stable
Conditions: c terminus: a fixed tail appended
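Further: lentivirally expressed fusions sorted by FACS into six bins by GFP to DsRed ratio, PSI derived from sequencing read proportions per bin multiplied by bin number.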

In order of falling protein stability index:
1. SLGKQKVFWIRKSLLDELMEVQHF  3.62
2. SLGKQKVFIIRHSLLDELMEVQHF  3.61
3. SLGKQKVFIIRFSLLDELMEVQHF  3.49
4. SLGKQKVFIIRDSLLDELMEVQHF  3.43
5. SLGKQKVFIIYKSLLDELMEVQHF  3.21
6. SLGKQKVYIIRKSLLDELMEVQHF  3.07
7. SLGKQKVFIMRKSLLDELMEVQHF  3.04
8. SLGKQKVFIIGKSLLDELMEVQHF  3.02
9. SLGKQKVFIFRKSLLDELMEVQHF  3.02
10. SLGKQKVFIIEKSLLDELMEVQHF  2.99
11. SLGKQKVFIIRESLLDELMEVQHF  2.99
12. SLGKQKVFIILKSLLDELMEVQHF  2.96
13. SLGKQKVFIIRQSLLDELMEVQHF  2.96
14. SLGKQKVFYIRKSLLDELMEVQHF  2.85
15. SLGKQKVFVIRKSLLDELMEVQHF  2.84
16. SLGKQKVFIIAKSLLDELMEVQHF  2.83
17. SLGKQKVWIIRKSLLDELMEVQHF  2.79
18. SLGKQKVFIIIKSLLDELMEVQHF  2.78
19. SLGKQKVFIIRISLLDELMEVQHF  2.77
20. SLGKQKVFIIRRSLLDELMEVQHF  2.75
21. SLGKQKVFICRKSLLDELMEVQHF  2.69
22. SLGKQKVFIITKSLLDELMEVQHF  2.61
23. SLGKQKVFIICKSLLDELMEVQHF  2.61
24. SLGKQKVEIIRKSLLDELMEVQHF  2.58
25. SLGKQKVFIIQKSLLDELMEVQHF  2.54
26. SLGKQKVFIIWKSLLDELMEVQHF  2.53
27. SLGKQKVFIVRKSLLDELMEVQHF  2.52
28. SLGKQKVCIIRKSLLDELMEVQHF  2.49
29. SLGKQKVFIIRASLLDELMEVQHF  2.44
30. SLGKQKVFIIHKSLLDELMEVQHF  2.43
31. SLGKQKVFFIRKSLLDELMEVQHF  2.41
32. SLGKQKVFIDRKSLLDELMEVQHF  2.41
33. SLGKQKVFILRKSLLDELMEVQHF  2.38
34. SLGKQKVRIIRKSLLDELMEVQHF  2.36
35. SLGKQKWFIIRKSLLDELMEVQHF  2.34
36. SLGKQKYFIIRKSLLDELMEVQHF  2.33
37. SLGKQKVFIIRNSLLDELMEVQHF  2.32
38. SLGKQKVFHIRKSLLDELMEVQHF  2.22
39. SLGKQKVFIIDKSLLDELMEVQHF  2.22
40. SLGKQKVFMIRKSLLDELMEVQHF  2.21
41. SLGKQKVFIIVKSLLDELMEVQHF  2.19
42. SLGKQKVFDIRKSLLDELMEVQHF  2.18
43. SLGKQKVFIIRLSLLDELMEVQHF  2.18
44. SLGKQKTFIIRKSLLDELMEVQHF  2.16
45. SLGKQKRFIIRKSLLDELMEVQHF  2.16
46. SLGKQKVFSIRKSLLDELMEVQHF  2.15
47. SLGKQKVIIIRKSLLDELMEVQHF  2.15
48. SLGKQKVFIIRMSLLDELMEVQHF  2.13
49. SLGKQKVDIIRKSLLDELMEVQHF  2.12
50. SLGKQKVFIISKSLLDELMEVQHF  2.11
51. SLGKQKVFPIRKSLLDELMEVQHF  2.1
52. SLGKQKVFIPRKSLLDELMEVQHF  2.08
53. SLGKQKVSIIRKSLLDELMEVQHF  2.03
54. SLGKQKVFNIRKSLLDELMEVQHF  2.02
55. SLGKQKVLIIRKSLLDELMEVQHF  2.02
56. SLGKQKVFAIRKSLLDELMEVQHF  1.99
57. SLGKQKVFITRKSLLDELMEVQHF  1.98
58. SLGKQKVQIIRKSLLDELMEVQHF  1.97
59. SLGKQKVGIIRKSLLDELMEVQHF  1.93
60. SLGKQKVFIGRKSLLDELMEVQHF  1.91
61. SLGKQKVFIARKSLLDELMEVQHF  1.9
62. SLGKQKVFQIRKSLLDELMEVQHF  1.89
63. SLGKQKVFIWRKSLLDELMEVQHF  1.89
64. SLGKQKVKIIRKSLLDELMEVQHF  1.88
65. SLGKQKVFIQRKSLLDELMEVQHF  1.87
66. SLGKQKVFTIRKSLLDELMEVQHF  1.84
67. SLGKQKQFIIRKSLLDELMEVQHF  1.82
68. SLGKQKVFRIRKSLLDELMEVQHF  1.8
69. SLGKQKVFISRKSLLDELMEVQHF  1.8
70. SLGKQKVFGIRKSLLDELMEVQHF  1.79
71. SLGKQKVFIIPKSLLDELMEVQHF  1.78
72. SLGKQKVFIIFKSLLDELMEVQHF  1.78
73. SLGKQKVFIIKKSLLDELMEVQHF  1.77
74. SLGKQKVFEIRKSLLDELMEVQHF  1.76
75. SLGKQKVFCIRKSLLDELMEVQHF  1.76
76. SLGKQKVAIIRKSLLDELMEVQHF  1.76
77. SLGKQKSFIIRKSLLDELMEVQHF  1.74
78. SLGKQKVFINRKSLLDELMEVQHF  1.72
79. SLGKQKVHIIRKSLLDELMEVQHF  1.71
80. SLGKQKVFIRRKSLLDELMEVQHF  1.69
81. SLGKQKVPIIRKSLLDELMEVQHF  1.66
82. SLGKQKVFIHRKSLLDELMEVQHF  1.65
83. SLGKQKVFIIRPSLLDELMEVQHF  1.62
84. SLGKQKVVIIRKSLLDELMEVQHF  1.6
85. SLGKQKVFKIRKSLLDELMEVQHF  1.58
86. SLGKQKVMIIRKSLLDELMEVQHF  1.58
87. SLGKQKVFIIMKSLLDELMEVQHF  1.53
88. SLGKQKVNIIRKSLLDELMEVQHF  1.5
89. SLGKQKVFIYRKSLLDELMEVQHF  1.48
90. SLGKQKVFIKRKSLLDELMEVQHF  1.48
91. SLGKQKVFIERKSLLDELMEVQHF  1.47
92. SLGKQKVTIIRKSLLDELMEVQHF  1.32
93. SLGKQKVFIIRSSLLDELMEVQHF  1.23
94. SLGKQKVFLIRKSLLDELMEVQHF  1.21
